Laboratory results reported in patent publication US20100095387A1, “METHODS AND REAGENTS FOR SCREENING NEW DRUGS AND FOR TREATING ION PUMP ASSOCIATED DISORDERS AND DISEASES” (priority 2005, published 2010).
Entries after “also recorded” stand apart in the source; their conditions may differ.

Columns and labels:
cortical neurons = experiment: c-fos induction, Fos in situ enzyme-linked immunoassay in cortical cultures; type: cell-based, mouse; settings: C-AgΔ20 at 50 pM or 5 nM; C-Ag15 up to fivefold above saturation for C-Ag20z0/8
Description: (§1) Mouse cortical cultures were prepared from newborn or 1-d-old ICR strain mice (Harlan) as described previously (Hilgenberg et al., 1999). For the first 24 h after plating, cells were maintained in neural basal medium (NBM) plus B27 supplements (Invitrogen), and in nonneuronal cell-conditioned NBM (cNBM) plus B27 thereafter, at 37° C. in humidified 5% CO2 atmosphere. To further reduce proliferation of nonneuronal cells, cultures on glass coverslips used for histology were treated with 5 μM 5-fluoro-2-deoxyuridine (Sigma-Aldrich) 3-4 d after plating. Hippocampal and cerebellar cultures were prepared in a similar manner. Experiments were performed on 10-14-d-old cultures. Agrin-deficient neuron cultures were prepared from cortices of embryonic d 18-19 fetuses resulting from matings between mice heterozygous for a mutation in the agrin gene (Gautam et al., 1996). Cultures were prepared and genotyped as described previously (Li et al., 1999), and were maintained as above.
(§2) Fos expression in cortical cultures was measured by in situ enzyme-linked immunoassay (Hilgenberg et al., 1999). In brief, 11-14-d-old neuronal cultures were treated for 10 min with agrin or other agent diluted in NBM or PBS, then washed in cNBM and returned to the incubator for 2 h. […] The level of Fos expression was determined by monitoring conversion of p-nitrophenyl phosphate to a soluble yellow reaction product at 405 nm.

cerebellar neurons = experiment: Fos expression in cerebellar neurons; type: cell-based, mouse; settings: 1 nM C-Ag15 with 50 pM C-Ag95z8
Description: as §1
as §2, with “nm. […]” for “nm.”

agrin-deficient neurons = experiment: Rescue of glutamate-induced Fos expression in agrin-deficient neuron cultures; type: cell-based, mouse
Description: FIG. 6 is a graph showing that the 20-kD COOH-terminal region of agrin is the minimal fragment sufficient to rescue an agrin-deficient phenotype. (A) 10-d-old wild-type (filled bars) or agrin-deficient (open bars) cultures were grown for 2 d in media supplemented to 5 nM with the indicated agrin fragment. Cultures were challenged for 5 min with 100 μM glutamate as described previously (Hilgenberg et al., 2002), and the levels of Fos expression were determined. Data were normalized to levels of glutamate-induced Fos expression in mocktreated wild-type cultures. Compared with mock, glutamate responses of homozygous agrin-deficient neurons were rescued to near wildtype levels by either the long C-Ag95z8/0 or short C-Ag20z8/0 fragments (***, P≦0.0005; **, P≦0.002; *, P≦0.02; paired t test). (B) To test the ability of C-Ag15 to antagonize agrin action, 10-d-old agrin-deficient neurons were maintained for 2 d in the presence of 5 nM C-Ag95z0 alone or in combination with 10 nM C-Ag15, and neuronal responses to glutamate were determined as above. […]
Fos expression in cortical cultures was measured by in situ enzyme-linked immunoassay (Hilgenberg et al., 1999). […] The level of Fos expression was determined by monitoring conversion of p-nitrophenyl phosphate to a soluble yellow reaction product at 405 nm.

α3Na+/K+-ATPase = α3Na+/K+-ATPase (Mus musculus, UniProt Q6PIC6); experiment: Na+ imaging (SBFI-AM) of cultured cortical cells; type: cell-based
[1] = target: rat α3 subunit of the Na+/K+-ATPase (Rattus norvegicus, UniProt P06687); experiment: Na+ imaging of non-neuronal cells transfected with pRcα3; type: cell-based
[2] = tested on: cultured cortical neurons; experiment: Firing properties of cultured cortical neurons in normal external solution; type: cell-based, mouse; settings: co-incubation with C-Ag15
[3] = tested on: cultured cortical neurons; experiment: Glutamate excitotoxic injury of cultured cortical neurons, LDH in growth medium; type: cell-based; settings: 10 minutes glutamate with C-Ag15; preliminary data
Description: FIG. 15. C-Ag15 is neuroprotective for excitotoxic injury. Cultured cortical eurons were treated for 10 minutes with the excitatory neurotransmitter glutamate in the presence of the indicated concentration of C-Ag15 and degree of neuronal injury assessed by monitoring the level of LDH in the growth medium. Data are expressed as a percentage of the LDH in sister cultures treated with glutamate alone. The neuroprotective effect of C-Ag15 is dose-dependent.

cardiac myocytes = experiment: Spontaneous contraction frequency of cultured cardiac myocytes; type: cell-based, mouse
Description: FIG. 17. Cardiac myocyte contraction is agrin dependent. Cardiac myocytes were prepared from hearts of individual embryos produced by heterozygous pairings. The genotype of cultures was determined by PCR analysis of tissue samples from each embryo. Myocytes were maintained in 199 medium containing 10% FCS as described (Mitcheson et al., 1998). At 5 days in culture, the frequency of spontaneous contractions was determined by counting contractions in myocytes from 5 random fields at 300× magnification for 30 seconds. Contraction frequency is dependent on Agrn gene dosage such that Agrn−/−>Agrn+/−>Agrn+/+. Addition of C-Ag208 to the growth medium rescues the Agrn mutant phenotype whereas C-Ag15 increased the contraction frequency of wild type myocytes to a level similar to Agrn−/− cells. Bars show mean±SEM for a minimum of 2 independent platings from 3 embryos, except for Agrn+/−treated with C-Ag208, which was a single plating of 2 embryos. All data were collected blind with respect to genotype and agrin treatment. *** p≦0.001. ANOVA with Bonferroni post-hoc pair-wise comparison.
Quantitative studies confirmed and extended these observations by showing that the frequency of myocyte contraction is dependent on agrin gene dose: Agrn−/− myocyte contraction frequency is about 2-fold higher and Agrn+/− 1.5-fold higher than Agrn+/+ myocytes (FIG. 17). To learn whether the effect of the Agrn mutation on myocyte contraction is a direct result of the loss of agrin expression the effects of growing the cells in media supplemented with C-Ag208, an active agrin fragment, or C-Ag15, the agrin antagonist was next examined.

B1: C-Ag15: 15-kD COOH-terminal fragment of agrin created by deleting 37 amino acids from the NH2 terminus of C-Ag20, SEQ. ID NO. 3 (protein)
chain: MDPWIGKAAERADYMALAIVDGHLQLSYDLASQPVVLRSTVKVNTNRWLRVRAHREHREGSLQVGNEAPVTSSSPLGATQLDTDGALWLGGLQKLPVGQPLPKAYGTGFVGCLRNVVGHRQLHLLEDAVTKPELRPCPTLNSKLGPEQKLISEEDLNSAVDHHHHHH
modifications: Synthetically produced sequence
With B1 the “effect of fragment alone on Fos expression” value (cortical neurons) was “no effect”, the “effect on C-Ag95z8-induced Fos expression” value (cerebellar neurons) was “completely inhibited” and the “rescue by C-Ag95z0 blocked” value (agrin-deficient neurons; 10 nM C-Ag15 with 5 nM C-Ag95z0 in growth medium) was 54%. For the same molecule, the “effect on glutamate-induced expression of c-fos” value (agrin-deficient neurons; up to 10 nM, wild-type or heterozygous agrin-deficient neurons) was “no effect”, the “effect on Na+ increase induced by active agrin fragments” value (α3Na+/K+-ATPase) was “blocked” and the “effect on ouabain-induced increase in neuronal Na+” value (α3Na+/K+-ATPase) was “blocked; also recorded: significantly reduced”. The “neuronal intracellular Na+” value (α3Na+/K+-ATPase) was “no significant effect”, the “antagonism of active agrin fragments” value [1] was “effective antagonist” and the “intracellular Na+ in cells expressing the α3 subunit” value [1] was “unaffected”. For the same molecule, the “effect on depolarization and action potential increase induced by C-Ag20 isoforms” value [2] was “blocked”, the “neuronal injury, LDH in growth medium” value [3] was “neuroprotective; also recorded: dose-dependent” and the contraction frequency (cardiac myocytes; Agrn+/+ and Agrn+/− myocytes grown in fragment) was “significantly increased”. The contraction frequency (cardiac myocytes; Agrn−/− cells grown in fragment) was “no effect”.
